Experimental data reported in US11512128B2, “VEGF/DLL4 binding agents and uses thereof” (MEREO BIOPHARMA 5, INC., priority 2011, dated 2022).

Legend:
[1] = tested on: xenograft tumor models; settings: Hoey et al., 2009; U.S. Pat. No. 7,750,124; cited from earlier work
[2] = biological target: human DLL4-Fc (Homo sapiens, UniProt Q9NR61); experiment: Biacore binding affinity (KD) to human DLL4; settings: ratio of KD values
Description: The KDs of parental antibodies anti-VEGF 219R45 (IgG format), anti-DLL4 21R79 (IgG format), anti-DLL4 21M18 (IgG format) and bispecific antibodies 219R45-MB-21M18 and 219R45-MB-21R79 were determined using a Biacore 2000 system from Biacore LifeSciences (GE Healthcare). Recombinant human DLL4-Fc or mouse DLL4-Fc proteins were immobilized on CM5 carboxyl chips using standard amine-based chemistry (NHS/EDC) and blocked with ethanolamine. Recombinant human VEGF165 or mouse VEGF165 were biotinylated and immobilized on streptavidin chips. The antibodies were serially diluted 2-fold from 100 nM to 0.78 nM in HBS-P (0.01M HEPES pH7.4, 0.15M NaCl, 0.005% v/v Polysorbate 20). For each antibody, all 8 dilutions were sequentially injected over a specific chip. Kinetic data were collected over time and were fit using the simultaneous global fit equation to yield affinity constants (KD values) for each bispecific antibody.
Several additional anti-DLL4 antibodies were identified that had binding affinities intermediate to the KDs of 21M18 and 21R79. Two of these anti-DLL4 antibodies were used to produce anti-VEGF/anti-DLL4 bispecific antibodies 219R45-MB-21R75 and 219R45-MB-21R83. Using the Biacore 2000 system as described above, the KDs of the bispecific antibodies 219R45-MB-21R75 and 219R45-MB-21R83 to human DLL4 were determined.

[3] = Non-GLP toxicity study in cynomolgus monkeys; assay type: in vivo; settings: after 15 weeks
Description: A non-GLP toxicity study in cynomolgus monkeys was initiated to evaluate and compare the toxicity profile of some of the bispecific antibodies. The animals were dosed with 0 mg/kg (control), 5 mg/kg (low dose), or 30 mg/kg (high dose) of anti-DLL4/anti-VEGF bispecific antibody (219R45-MB-21M18, 219R45-MB-21R83, or 219R45-MB-21R79) every 2 weeks via IV infusion. 3 males and 3 females were dosed in each group. After 15 weeks, mean body weights were lower in animals receiving the high dose of 219R45-MB-21R79 than in animals that received the high dose of either […] or 219R45-MB-21R83. In addition, mean serum albumin levels were lower in animals that received 219R45-MB-21R79 than in those that received either […] or 219R45-MB-21R83.

[4] = tested on: OMP-C8 colon tumor; experiment: OMP-C8 colon tumor growth in vivo; set-up: species or system NOD/SCID mice
Description: FIGS. 11A and 11B. Inhibition of colon tumor growth in vivo by anti-VEGF/anti-DLL4 bispecific antibodies. OMP-C8 colon tumor cells were injected subcutaneously into NOD/SCID mice. Mice were treated with control antibody (-▪-), anti-VEGF antibody bevacizumab (-▴-), or anti-VEGF/anti-DLL4 bispecific antibodies 219R45-MB-21M18 (-⋄-), 219R45-MB-21R75 (-●-), 219R45-MB-21R79 (-∘-), or 219R45-MB-21R83 (-▾-). Mice were treated with antibodies as single agents (FIG. 11A) or in combination with irinotecan (FIG. 11B). Antibodies were administered intraperitoneally at a dose of 15 mg/kg once a week and irinotecan at a dose of 7.5 mg/kg one a week. Data are shown as tumor volume (mm^3) over days post-treatment.
Single cell suspensions of OMP-C8 colon tumor xenografts (50,000 cells) were injected subcutaneously into the flanks of 6-8 week old NOD/SCID mice. Tumors were allowed to grow for 21 days until they reached an average volume of 80 mm^3. The mice were randomized (n=8 per group) and treated with anti-DLL4 antibody 21M18, anti-VEGF antibody bevacizumab, anti-VEGF/anti-DLL4 bispecific antibodies 219R45-MB-21M18, 219R45-MB-21R75, 219R45-MB-21R79, 219R45-MB-21R83, or control antibody, either alone or in combination with irinotecan. Antibodies and irinotecan were dosed weekly by injection into the intraperitoneal cavity. Bevacizumab and bispecific antibodies 219R45-MB-21M18, 219R45-MB-21R75, 219R45-MB-21R79, and 219R45-MB-21R83 were dosed at 15 mg/kg, and irinotecan was dosed at 7.5 mg/kg. Tumor growth was monitored and tumor volumes were measured with electronic calipers at the indicated time points. Data are expressed as mean±S.E.M.
Following the treatment phase, tumor sections were prepared and analyzed by hematoxylin and eosin (H&E) staining. […] This is characteristic of highly necrotic tumor tissue.

human DLL4-Fc, sequence (Q9NR61 27-522 limits assumed): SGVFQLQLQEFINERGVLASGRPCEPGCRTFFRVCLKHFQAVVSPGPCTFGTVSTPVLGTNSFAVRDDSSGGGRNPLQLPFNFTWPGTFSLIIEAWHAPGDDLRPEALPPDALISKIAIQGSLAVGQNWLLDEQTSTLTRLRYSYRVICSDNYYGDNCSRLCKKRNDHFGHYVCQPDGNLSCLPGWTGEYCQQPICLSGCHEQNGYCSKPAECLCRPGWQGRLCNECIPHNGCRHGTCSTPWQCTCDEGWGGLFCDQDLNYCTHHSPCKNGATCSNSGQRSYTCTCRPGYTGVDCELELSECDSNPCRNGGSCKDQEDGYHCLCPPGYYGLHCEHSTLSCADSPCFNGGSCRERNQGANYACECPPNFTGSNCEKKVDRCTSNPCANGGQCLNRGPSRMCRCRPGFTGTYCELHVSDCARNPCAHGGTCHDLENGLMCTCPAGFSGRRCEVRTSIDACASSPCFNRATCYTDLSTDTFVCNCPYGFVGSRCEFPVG

B1: 21M18: anti-DLL4 antibody, parental antibody (Hoey et al., 2009; U.S. Pat. No. 7,750,124) (antibody, V domains shown)
VH: QVQLVQSGAEVKKPGASVKISCKASGYSFTAYYIHWVKQAPGQGLEWIGYISSYNGATNYNQKFKGRVTFTTDTSTSTAYMELRSLRSDDTAVYYCARDYDYDVGMDYWGQGTLVTVSS
VL: DIVMTQSPDSLAVSLGERATISCRASESVDNYGISFMKWFQQKPGQPPKLLIYAASNQGSGVPDRFSGSGSGTDFTLTISSLQAEDVAVYYCQQSKEVPWTFGGGTKVEIK
In the case of B1, the “frequency of cancer stem cells in xenograft tumor models” value [1] is given as “reduce the frequency of cancer stem cells” and the “tumor growth in xenograft tumor models” value [1] is given as “inhibit tumor growth”.

B2: 219R45-MB-21R79: anti-VEGF/anti-DLL4 monovalent/bispecific antibody, heavy chains SEQ ID NO:7 and 6, light chains SEQ ID NO:8 (antibody)
heavy 1: QVQLVQSGAEVKKPGASVKVSCKASGYTFTNYWMHWVRQAPGQGLEWMGDINPSNGRTSYKEKFKRRVTLSVDKSSSTAYMELSSLRSEDTAVYFCTIHYDDKYYPLMDYWGQGTLVTVSSASTKGPSVFPLAPCSRSTSESTAALGCLVKDYFPEPVTVSWNSGALTSGVHTFPAVLQSSGLYSLSSVVTVPSSNFGTQTYTCNVDHKPSNTKVDKTVERKCCVECPPCPAPPVAGPSVFLFPPKPKDTLMISRTPEVTCVVVDVSHEDPEVQFNWYVDGVEVHNAKTKPREEQFNSTFRVVSVLTVVHQDWLNGKEYKCKVSNKGLPAPIEKTISKTKGQPREPQVYTLPPSREKMTKNQVSLTCLVKGFYPSDIAVEWESNGQPENNYKTTPPMLKSDGSFFLYSKLTVDKSRWQQGNVFSCSVMHEALHNHYTQKSLSLSPGK
heavy 2: QVQLVQSGAEVKKPGASVKISCKASGYSFTAYYIHWVKQAPGQGLEWIGYIANYNRATNYNQKFKGRVTFTTDTSTSTAYMELRSLRSDDTAVYYCARDYDYDVGMDYWGQGTLVTVSSASTKGPSVFPLAPCSRSTSESTAALGCLVKDYFPEPVTVSWNSGALTSGVHTFPAVLQSSGLYSLSSVVTVPSSNFGTQTYTCNVDHKPSNTKVDKTVERKCCVECPPCPAPPVAGPSVFLFPPKPKDTLMISRTPEVTCVVVDVSHEDPEVQFNWYVDGVEVHNAKTKPREEQFNSTFRVVSVLTVVHQDWLNGKEYKCKVSNKGLPAPIEKTISKTKGQPREPQVYTLPPSREEMTKNQVSLTCLVEGFYPSDIAVEWESNGQPENNYKTTPPMLDSDGSFFLYSELTVDKSRWQQGNVFSCSVMHEALHNHYTQKSLSLSPGK
light: DIVMTQSPDSLAVSLGERATISCRASESVDNYGISFMKWFQQKPGQPPKLLIYAASNQGSGVPDRFSGSGSGTDFTLTISSLQAEDVAVYYCQQSKEVPWTFGGGTKVEIKRTVAAPSVIFPPSDEQLKSGTASVVCLLNNFYPREAKVQWKVDNALQSGNSQESVTEQDSKDSTYSLSSTLTLSKADYEKHKVYACEVTHQGLSSPVTKSFNRGEC
modifications: 21R79 Heavy chain without predicted signal sequence; Light chain without predicted signal sequence
In the case of B2, the “stronger binding to human DLL4 than 219R45-MB-21M18” value [2] is reported as “approximately 30 fold”, the “mean serum albumin levels” value ([3]; every 2 weeks IV infusion) is reported as “lower” and the mean body weights ([3]; high dose 30 mg/kg every 2 weeks IV infusion) is reported as “lower”.

B3: 219R45-MB-21M18: anti-VEGF/anti-DLL4 monovalent/bispecific antibody, heavy chains SEQ ID NO:7 and 5, light chains SEQ ID NO:8 (antibody)
heavy 1: QVQLVQSGAEVKKPGASVKVSCKASGYTFTNYWMHWVRQAPGQGLEWMGDINPSNGRTSYKEKFKRRVTLSVDKSSSTAYMELSSLRSEDTAVYFCTIHYDDKYYPLMDYWGQGTLVTVSSASTKGPSVFPLAPCSRSTSESTAALGCLVKDYFPEPVTVSWNSGALTSGVHTFPAVLQSSGLYSLSSVVTVPSSNFGTQTYTCNVDHKPSNTKVDKTVERKCCVECPPCPAPPVAGPSVFLFPPKPKDTLMISRTPEVTCVVVDVSHEDPEVQFNWYVDGVEVHNAKTKPREEQFNSTFRVVSVLTVVHQDWLNGKEYKCKVSNKGLPAPIEKTISKTKGQPREPQVYTLPPSREKMTKNQVSLTCLVKGFYPSDIAVEWESNGQPENNYKTTPPMLKSDGSFFLYSKLTVDKSRWQQGNVFSCSVMHEALHNHYTQKSLSLSPGK
heavy 2: QVQLVQSGAEVKKPGASVKISCKASGYSFTAYYIHWVKQAPGQGLEWIGYISSYNGATNYNQKFKGRVTFTTDTSTSTAYMELRSLRSDDTAVYYCARDYDYDVGMDYWGQGTLVTVSSASTKGPSVFPLAPCSRSTSESTAALGCLVKDYFPEPVTVSWNSGALTSGVHTFPAVLQSSGLYSLSSVVTVPSSNFGTQTYTCNVDHKPSNTKVDKTVERKCCVECPPCPAPPVAGPSVFLFPPKPKDTLMISRTPEVTCVVVDVSHEDPEVQFNWYVDGVEVHNAKTKPREEQFNSTFRVVSVLTVVHQDWLNGKEYKCKVSNKGLPAPIEKTISKTKGQPREPQVYTLPPSREEMTKNQVSLTCLVEGFYPSDIAVEWESNGQPENNYKTTPPMLDSDGSFFLYSELTVDKSRWQQGNVFSCSVMHEALHNHYTQKSLSLSPGK
light: DIVMTQSPDSLAVSLGERATISCRASESVDNYGISFMKWFQQKPGQPPKLLIYAASNQGSGVPDRFSGSGSGTDFTLTISSLQAEDVAVYYCQQSKEVPWTFGGGTKVEIKRTVAAPSVIFPPSDEQLKSGTASVVCLLNNFYPREAKVQWKVDNALQSGNSQESVTEQDSKDSTYSLSSTLTLSKADYEKHKVYACEVTHQGLSSPVTKSFNRGEC
modifications: 21R79 Heavy chain without predicted signal sequence; 21M18 Heavy chain without predicted signal sequence; Light chain without predicted signal sequence
In the case of B3, the “inhibition of tumor growth in combination with irinotecan” value ([4]; antibody 15 mg/kg, irinotecan 7.5 mg/kg weekly ip) is reported as “greatest inhibition of tumor growth” and the “H&E staining of tumor sections after treatment” value ([4]; in combination with irinotecan) is reported as “dark pink staining regions providing evidence of extensive calcification”.
